Data as given in publication PMC9482650, “Quantitative fragmentomics allow affinity mapping of interactomes” (Nature Communications, 2022).

T1: CARD11, Q9BXL7
T1 sequence (Q9BXL7 662-765, limits assumed, looked up): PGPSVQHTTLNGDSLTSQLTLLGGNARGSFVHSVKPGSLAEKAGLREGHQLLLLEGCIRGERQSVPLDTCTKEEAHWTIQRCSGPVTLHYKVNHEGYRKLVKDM

T2: GRIP1_2, Q9Y3R0
T2 sequence (Q9Y3R0 145-248, limits assumed, looked up): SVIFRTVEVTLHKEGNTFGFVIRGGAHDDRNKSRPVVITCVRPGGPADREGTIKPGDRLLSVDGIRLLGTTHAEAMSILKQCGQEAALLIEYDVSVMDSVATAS

T3: HTRA4, P83105
T3 sequence (P83105 378-476, limits assumed, looked up): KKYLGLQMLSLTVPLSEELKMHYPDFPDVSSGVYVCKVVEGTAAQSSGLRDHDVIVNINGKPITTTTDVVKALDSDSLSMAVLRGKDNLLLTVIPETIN

T4: NHERF3_3, Q5T2W1
T4 sequence (Q5T2W1 238-333, limits assumed, looked up): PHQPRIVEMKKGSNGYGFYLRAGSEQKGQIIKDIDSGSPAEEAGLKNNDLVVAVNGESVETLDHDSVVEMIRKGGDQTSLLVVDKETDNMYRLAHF

T5: NHERF3_4, Q5T2W1
T5 sequence (Q5T2W1 373-468, limits assumed, looked up): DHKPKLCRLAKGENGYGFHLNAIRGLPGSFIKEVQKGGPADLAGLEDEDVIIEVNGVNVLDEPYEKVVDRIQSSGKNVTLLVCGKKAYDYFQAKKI

T6: PDZD2_2, O15018
T6 sequence (O15018 329-429, limits assumed, looked up): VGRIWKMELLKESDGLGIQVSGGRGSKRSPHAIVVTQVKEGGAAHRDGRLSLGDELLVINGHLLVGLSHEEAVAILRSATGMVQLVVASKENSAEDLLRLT

T7: SIPA1L2, Q9P2F8
T7 sequence (Q9P2F8 945-1036, limits assumed, looked up): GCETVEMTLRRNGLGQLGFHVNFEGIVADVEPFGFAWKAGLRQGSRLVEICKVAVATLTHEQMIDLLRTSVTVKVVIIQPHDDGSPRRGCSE

T8: SNTA1, Q13424
T8 sequence (Q13424 82-180, limits assumed, looked up): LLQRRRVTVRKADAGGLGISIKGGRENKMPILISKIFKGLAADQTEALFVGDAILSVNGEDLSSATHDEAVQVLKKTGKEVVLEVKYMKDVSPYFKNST

T9: SNTG1, Q9NSN8
T9 sequence (Q9NSN8 52-150, limits assumed, looked up): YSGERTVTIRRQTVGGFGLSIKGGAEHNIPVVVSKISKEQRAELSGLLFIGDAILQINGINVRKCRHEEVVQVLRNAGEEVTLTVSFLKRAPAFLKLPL

T10: TJP3_3, O95049
T10 sequence (O95049 375-456, limits assumed, looked up): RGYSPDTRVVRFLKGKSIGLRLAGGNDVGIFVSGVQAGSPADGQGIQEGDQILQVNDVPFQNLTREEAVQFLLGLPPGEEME


Target: T1, CARD11, Q9BXL7
Assay: holdup assay
Design: key: below the threshold = too weak to quantify, mostly under pKd 3.1 to 4
Settings: plain residues with an end cap or a label only (N-terminal biotin on a linker: ado-ado)

| Binder | pKd |
| --- | --- |
| RSPVATATSC [DUSP5, Q16690] | below the threshold |

Target: CASK, O14936
Assay: holdup assay
Design: key: below the threshold = too weak to quantify, mostly under pKd 3.1 to 4
Settings: plain residues with an end cap or a label only (N-terminal biotin on a linker: ado-ado)

Chain of CASK, O14936 (O14936 487-570): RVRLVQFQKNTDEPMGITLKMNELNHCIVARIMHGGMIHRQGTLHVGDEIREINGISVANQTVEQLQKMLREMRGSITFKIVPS

| Binder | pKd |
| --- | --- |
| RSPVATATSC [DUSP5, Q16690] | below the threshold |

Target: DLG2_2, Q15700
Assay: holdup assay
Design: key: below the threshold = too weak to quantify, mostly under pKd 3.1 to 4
Settings: plain residues with an end cap or a label only (N-terminal biotin on a linker: ado-ado)

Chain of DLG2_2, Q15700 (Q15700 189-283): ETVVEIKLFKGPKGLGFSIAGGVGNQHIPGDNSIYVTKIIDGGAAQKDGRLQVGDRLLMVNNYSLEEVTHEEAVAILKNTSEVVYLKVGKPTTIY

| Binder | pKd |
| --- | --- |
| RSPVATATSC [DUSP5, Q16690] | below the threshold |

Target: FRMPD2_1, Q68DX3
Assay: holdup assay
Design: key: below the threshold = too weak to quantify, mostly under pKd 3.1 to 4
Settings: plain residues with an end cap or a label only (N-terminal biotin on a linker: ado-ado)

Chain of FRMPD2_1, Q68DX3 (Q68DX3 770-861): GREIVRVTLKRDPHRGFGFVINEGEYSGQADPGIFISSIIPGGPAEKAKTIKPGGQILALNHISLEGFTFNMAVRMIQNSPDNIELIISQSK

| Binder | pKd |
| --- | --- |
| RSPVATATSC [DUSP5, Q16690] | below the threshold |

Target: GOPC, Q9HD26
Assay: holdup assay
Design: key: below the threshold = too weak to quantify, mostly under pKd 3.1 to 4
Settings: plain residues with an end cap or a label only (N-terminal biotin on a linker: ado-ado)

| Binder | pKd |
| --- | --- |
| RSPVATATSC [DUSP5, Q16690] | below the threshold |

Target: T2, GRIP1_2, Q9Y3R0
Assay: holdup assay
Design: key: below the threshold = too weak to quantify, mostly under pKd 3.1 to 4
Settings: plain residues with an end cap or a label only (N-terminal biotin on a linker: ado-ado)

| Binder | pKd |
| --- | --- |
| RSPVATATSC [DUSP5, Q16690] | below the threshold |

Target: GRIP2_3, Q9C0E4
Assay: holdup assay
Design: key: below the threshold = too weak to quantify, mostly under pKd 3.1 to 4
Settings: plain residues with an end cap or a label only (N-terminal biotin on a linker: ado-ado)

Chain of GRIP2_3, Q9C0E4 (Q9C0E4 238-339): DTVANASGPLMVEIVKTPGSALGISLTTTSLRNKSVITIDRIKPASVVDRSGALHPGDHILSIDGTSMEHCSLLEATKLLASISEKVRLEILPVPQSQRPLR

| Binder | pKd |
| --- | --- |
| RSPVATATSC [DUSP5, Q16690] | below the threshold |

Target: GRIP2_4, Q9C0E4
Assay: holdup assay
Design: key: below the threshold = too weak to quantify, mostly under pKd 3.1 to 4
Settings: plain residues with an end cap or a label only (N-terminal biotin on a linker: ado-ado)

Chain of GRIP2_4, Q9C0E4 (Q9C0E4 446-548): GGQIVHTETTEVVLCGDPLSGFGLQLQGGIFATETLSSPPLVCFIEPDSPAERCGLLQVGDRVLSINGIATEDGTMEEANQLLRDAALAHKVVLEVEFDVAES

| Binder | pKd |
| --- | --- |
| RSPVATATSC [DUSP5, Q16690] | below the threshold |

Target: HTRA1, Q92743
Assay: holdup assay
Design: key: below the threshold = too weak to quantify, mostly under pKd 3.1 to 4
Settings: plain residues with an end cap or a label only (N-terminal biotin on a linker: ado-ado)

Chain of HTRA1, Q92743 (Q92743 360-477): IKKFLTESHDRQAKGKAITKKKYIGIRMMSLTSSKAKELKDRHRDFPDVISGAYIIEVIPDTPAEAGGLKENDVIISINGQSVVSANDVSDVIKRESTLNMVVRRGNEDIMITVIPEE

| Binder | pKd |
| --- | --- |
| RSPVATATSC [DUSP5, Q16690] | below the threshold |

Target: T3, HTRA4, P83105
Assay: holdup assay
Design: key: below the threshold = too weak to quantify, mostly under pKd 3.1 to 4
Settings: plain residues with an end cap or a label only (N-terminal biotin on a linker: ado-ado)

| Binder | pKd |
| --- | --- |
| RSPVATATSC [DUSP5, Q16690] | below the threshold |

Target: Inadl_5, Q8NI35
Assay: holdup assay
Design: key: below the threshold = too weak to quantify, mostly under pKd 3.1 to 4
Settings: plain residues with an end cap or a label only (N-terminal biotin on a linker: ado-ado)

Chain of Inadl_5, Q8NI35 (Q8NI35 673-780): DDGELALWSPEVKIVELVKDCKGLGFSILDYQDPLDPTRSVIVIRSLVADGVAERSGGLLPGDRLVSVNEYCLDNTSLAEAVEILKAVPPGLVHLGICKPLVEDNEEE

| Binder | pKd |
| --- | --- |
| RSPVATATSC [DUSP5, Q16690] | below the threshold |

Target: Inadl_6, Q8NI35
Assay: holdup assay
Design: key: below the threshold = too weak to quantify, mostly under pKd 3.1 to 4
Settings: plain residues with an end cap or a label only (N-terminal biotin on a linker: ado-ado)

Chain of Inadl_6, Q8NI35 (Q8NI35 1058-1167): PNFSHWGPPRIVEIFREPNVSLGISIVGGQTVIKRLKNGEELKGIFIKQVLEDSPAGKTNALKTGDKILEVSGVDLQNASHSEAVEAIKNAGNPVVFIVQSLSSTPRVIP

| Binder | pKd |
| --- | --- |
| RSPVATATSC [DUSP5, Q16690] | below the threshold |

Target: LDB3, O75112
Assay: holdup assay
Design: key: below the threshold = too weak to quantify, mostly under pKd 3.1 to 4
Settings: plain residues with an end cap or a label only (N-terminal biotin on a linker: ado-ado)

Chain of LDB3, O75112 (O75112 1-94): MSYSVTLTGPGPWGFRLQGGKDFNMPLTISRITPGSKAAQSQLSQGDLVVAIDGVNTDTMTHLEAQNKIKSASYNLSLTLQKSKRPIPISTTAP

| Binder | pKd |
| --- | --- |
| RSPVATATSC [DUSP5, Q16690] | below the threshold |

Target: LNX1_3, Q8TBB1
Assay: holdup assay
Design: key: below the threshold = too weak to quantify, mostly under pKd 3.1 to 4
Settings: plain residues with an end cap or a label only (N-terminal biotin on a linker: ado-ado)

Chain of LNX1_3, Q8TBB1 (Q8TBB1 500-596): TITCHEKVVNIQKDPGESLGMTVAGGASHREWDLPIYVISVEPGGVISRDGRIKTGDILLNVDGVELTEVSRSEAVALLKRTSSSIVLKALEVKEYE

| Binder | pKd |
| --- | --- |
| RSPVATATSC [DUSP5, Q16690] | below the threshold |

Target: MAGI2_3, Q86UL8
Assay: holdup assay
Design: key: below the threshold = too weak to quantify, mostly under pKd 3.1 to 4
Settings: plain residues with an end cap or a label only (N-terminal biotin on a linker: ado-ado)

Chain of MAGI2_3, Q86UL8 (Q86UL8 600-682): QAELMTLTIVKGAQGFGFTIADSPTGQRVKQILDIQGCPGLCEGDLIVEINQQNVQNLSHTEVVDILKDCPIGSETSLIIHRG

| Binder | pKd |
| --- | --- |
| RSPVATATSC [DUSP5, Q16690] | below the threshold |

Target: MAGI2_4, Q86UL8
Assay: holdup assay
Design: key: below the threshold = too weak to quantify, mostly under pKd 3.1 to 4
Settings: plain residues with an end cap or a label only (N-terminal biotin on a linker: ado-ado)

Chain of MAGI2_4, Q86UL8 (Q86UL8 772-865): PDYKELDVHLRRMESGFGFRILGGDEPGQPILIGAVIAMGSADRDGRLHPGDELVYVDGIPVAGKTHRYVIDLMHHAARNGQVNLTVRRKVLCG

| Binder | pKd |
| --- | --- |
| RSPVATATSC [DUSP5, Q16690] | below the threshold |

Target: MAGI2_5, Q86UL8
Assay: holdup assay
Design: key: below the threshold = too weak to quantify, mostly under pKd 3.1 to 4
Settings: plain residues with an end cap or a label only (N-terminal biotin on a linker: ado-ado)

Chain of MAGI2_5, Q86UL8 (Q86UL8 915-1017): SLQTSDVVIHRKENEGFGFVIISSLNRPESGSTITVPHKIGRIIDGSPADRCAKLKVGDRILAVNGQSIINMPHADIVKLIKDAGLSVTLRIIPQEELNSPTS

| Binder | pKd |
| --- | --- |
| RSPVATATSC [DUSP5, Q16690] | below the threshold |

Target: MAST1, Q9Y2H9
Assay: holdup assay
Design: key: below the threshold = too weak to quantify, mostly under pKd 3.1 to 4
Settings: plain residues with an end cap or a label only (N-terminal biotin on a linker: ado-ado)

Chain of MAST1, Q9Y2H9 (Q9Y2H9 962-1065): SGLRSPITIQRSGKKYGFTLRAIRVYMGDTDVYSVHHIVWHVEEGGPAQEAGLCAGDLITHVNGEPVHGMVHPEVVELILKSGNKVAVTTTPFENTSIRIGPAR

| Binder | pKd |
| --- | --- |
| RSPVATATSC [DUSP5, Q16690] | 3.81 |

Target: T4, NHERF3_3, Q5T2W1
Assay: holdup assay
Design: key: below the threshold = too weak to quantify, mostly under pKd 3.1 to 4
Settings: plain residues with an end cap or a label only (N-terminal biotin on a linker: ado-ado)

| Binder | pKd |
| --- | --- |
| RSPVATATSC [DUSP5, Q16690] | below the threshold |

Target: T5, NHERF3_4, Q5T2W1
Assay: holdup assay
Design: key: below the threshold = too weak to quantify, mostly under pKd 3.1 to 4
Settings: plain residues with an end cap or a label only (N-terminal biotin on a linker: ado-ado)

| Binder | pKd |
| --- | --- |
| RSPVATATSC [DUSP5, Q16690] | below the threshold |

Target: NHERF4_2, Q86UT5
Assay: holdup assay
Design: key: below the threshold = too weak to quantify, mostly under pKd 3.1 to 4
Settings: plain residues with an end cap or a label only (N-terminal biotin on a linker: ado-ado)

Chain of NHERF4_2, Q86UT5 (Q86UT5 220-308): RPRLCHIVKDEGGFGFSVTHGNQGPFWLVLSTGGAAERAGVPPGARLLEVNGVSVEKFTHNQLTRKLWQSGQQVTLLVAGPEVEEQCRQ

| Binder | pKd |
| --- | --- |
| RSPVATATSC [DUSP5, Q16690] | below the threshold |

Target: T6, PDZD2_2, O15018
Assay: holdup assay
Design: key: below the threshold = too weak to quantify, mostly under pKd 3.1 to 4
Settings: plain residues with an end cap or a label only (N-terminal biotin on a linker: ado-ado)

| Binder | pKd |
| --- | --- |
| RSPVATATSC [DUSP5, Q16690] | below the threshold |

Target: PICK1, Q9NRD5
Assay: holdup assay
Design: key: below the threshold = too weak to quantify, mostly under pKd 3.1 to 4
Settings: plain residues with an end cap or a label only (N-terminal biotin on a linker: ado-ado)

Chain of PICK1, Q9NRD5 (Q9NRD5 17-115): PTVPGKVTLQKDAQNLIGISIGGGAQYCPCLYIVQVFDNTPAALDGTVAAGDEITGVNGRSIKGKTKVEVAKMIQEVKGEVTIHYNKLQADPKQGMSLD

| Binder | pKd |
| --- | --- |
| RSPVATATSC [DUSP5, Q16690] | 3.97 |

Target: PTPN3, P26045
Assay: holdup assay
Design: key: below the threshold = too weak to quantify, mostly under pKd 3.1 to 4
Settings: plain residues with an end cap or a label only (N-terminal biotin on a linker: ado-ado)

Chain of PTPN3, P26045 (P26045 505-587): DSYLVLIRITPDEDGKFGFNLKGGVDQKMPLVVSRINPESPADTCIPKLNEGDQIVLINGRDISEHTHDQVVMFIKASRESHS

| Binder | pKd |
| --- | --- |
| RSPVATATSC [DUSP5, Q16690] | 4.05 |

Target: SCRIB_2, Q14160
Assay: holdup assay
Design: key: below the threshold = too weak to quantify, mostly under pKd 3.1 to 4
Settings: plain residues with an end cap or a label only (N-terminal biotin on a linker: ado-ado)

Chain of SCRIB_2, Q14160 (Q14160 857-960): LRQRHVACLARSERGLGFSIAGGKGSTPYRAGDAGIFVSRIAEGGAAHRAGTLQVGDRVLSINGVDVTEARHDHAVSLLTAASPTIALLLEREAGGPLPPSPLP

| Binder | pKd |
| --- | --- |
| RSPVATATSC [DUSP5, Q16690] | below the threshold |

Target: T7, SIPA1L2, Q9P2F8
Assay: holdup assay
Design: key: below the threshold = too weak to quantify, mostly under pKd 3.1 to 4
Settings: plain residues with an end cap or a label only (N-terminal biotin on a linker: ado-ado)

| Binder | pKd |
| --- | --- |
| RSPVATATSC [DUSP5, Q16690] | below the threshold |

Target: T8, SNTA1, Q13424
Assay: holdup assay
Design: key: below the threshold = too weak to quantify, mostly under pKd 3.1 to 4
Settings: plain residues with an end cap or a label only (N-terminal biotin on a linker: ado-ado)

| Binder | pKd |
| --- | --- |
| RSPVATATSC [DUSP5, Q16690] | below the threshold |

Target: T9, SNTG1, Q9NSN8
Assay: holdup assay
Design: key: below the threshold = too weak to quantify, mostly under pKd 3.1 to 4
Settings: plain residues with an end cap or a label only (N-terminal biotin on a linker: ado-ado)

| Binder | pKd |
| --- | --- |
| RSPVATATSC [DUSP5, Q16690] | below the threshold |

Target: T10, TJP3_3, O95049
Assay: holdup assay
Design: key: below the threshold = too weak to quantify, mostly under pKd 3.1 to 4
Settings: plain residues with an end cap or a label only (N-terminal biotin on a linker: ado-ado)

| Binder | pKd |
| --- | --- |
| RSPVATATSC [DUSP5, Q16690] | below the threshold |
